# Source: paper PMC4837482, “The complex binding mode of the peptide hormone H2 relaxin to its receptor RXFP1” (Nature Communications, 2016)
# Numbering of substitutions follows the chain as printed.
# Assays:
# Test in all cases: cAMP activity assay (pCRE β-galactosidase reporter), transfected HEK293T cells
# Type in all cases: cell-based
# [1] = target: T1, RXFP1 A55L (Homo sapiens, UniProt Q9HBX9, A77L); conditions: construct A55L, ±s.e.m.
# T1 construct: cells expressing full-length RXFP1 and mutants; expressed in transfected cells; host or cells: HEK293T
# T1 sequence (Q9HBX9 23-757 A77L limits assumed): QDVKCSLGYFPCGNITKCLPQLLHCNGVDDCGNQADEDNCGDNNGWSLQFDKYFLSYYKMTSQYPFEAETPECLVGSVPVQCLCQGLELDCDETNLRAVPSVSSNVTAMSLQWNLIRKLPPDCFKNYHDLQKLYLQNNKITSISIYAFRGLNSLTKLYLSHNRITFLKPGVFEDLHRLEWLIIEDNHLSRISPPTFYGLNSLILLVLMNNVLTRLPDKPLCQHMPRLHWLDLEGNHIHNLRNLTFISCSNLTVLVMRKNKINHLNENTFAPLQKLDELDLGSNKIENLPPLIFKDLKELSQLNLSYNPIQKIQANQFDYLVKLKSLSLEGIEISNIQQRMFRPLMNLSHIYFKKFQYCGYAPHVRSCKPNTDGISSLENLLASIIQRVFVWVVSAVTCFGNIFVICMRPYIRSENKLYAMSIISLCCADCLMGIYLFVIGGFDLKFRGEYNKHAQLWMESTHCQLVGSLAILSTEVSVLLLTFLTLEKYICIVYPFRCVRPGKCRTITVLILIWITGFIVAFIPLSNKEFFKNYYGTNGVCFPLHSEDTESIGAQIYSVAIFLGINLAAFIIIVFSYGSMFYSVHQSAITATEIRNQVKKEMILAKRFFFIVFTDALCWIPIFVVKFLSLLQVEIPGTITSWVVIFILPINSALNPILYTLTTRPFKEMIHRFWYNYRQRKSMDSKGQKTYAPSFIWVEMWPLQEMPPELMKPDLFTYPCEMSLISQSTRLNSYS
# Method in brief: (§1)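 Receptor signalling is measured as CRE-driven β-galactosidase activity after H2 relaxin exposure, using a colorimetric substrate read at 570 nm. Values are normalised to 5 μM Forskolin, pooled from at least three independent triplicate experiments.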
# [2] = target: T2, RXFP1 E67A (Homo sapiens, UniProt Q9HBX9, E89A); conditions: construct E67A, ±s.e.m.
# T2 construct: cells expressing full-length RXFP1 and mutants; expressed in transfected cells; host or cells: HEK293T
# T2 sequence (Q9HBX9 23-757 E89A limits assumed): T1 sequence (Q9HBX9 23-757 A77L limits assumed) with L55A, E67A
# Method in brief: as §1
# [3] = target: T3, RXFP1 D42A (Homo sapiens, UniProt Q9HBX9, D64A); conditions: construct D42A
# T3 construct: transiently transfected human embryonic kidney (HEK) 293T cells expressing full-length RXFP1 and mutants; expressed in transfected cells; host or cells: HEK293T
# T3 sequence (Q9HBX9 23-757 D64A limits assumed): T1 sequence (Q9HBX9 23-757 A77L limits assumed) with D42A, L55A
# Method in brief: as §1
# [4] = percentage of maximum response to 5 μM Forskolin
substance,measurement,setting,value
H2 relaxin: two-chain 6-kDa peptide hormone structurally related to insulin; recombinant human gene-2 H2 relaxin provided by Corthera,H2 relaxin pEC50,[1]; cAMP reporter,10.75±0.17 (5)
same,H2 relaxin Emax,[1]; [4],123.59±8.51 (5) %
same,H2 relaxin pEC50,[2]; cAMP reporter,11.13±0.13
same,H2 relaxin Emax,[2]; [4],141.74±27.08 (5) %
same,H2 relaxin pEC50,[3],<6 (4)
